Reference: US6710030B1, “Contortrostain (CN) and methods for its use in preventing metastasis and other conditions” (University of Southern California, priority 1993, dated 2004)
Read-outs that look alike come from different tables or passages of the source.

Tests used:
[1] = tested on: human melanoma M24 met cells; test: M24 met cell adhesion to extracellular matrix proteins; format: cell-based
From the text: The compositions of the present invention also have utility in inhibiting metastasis in melanoma, carcinoma and sarcoma patients. […] Thus, methods and compositions for preventing metastases in melanoma, carcinoma and sarcoma patients are also contemplated as within the scope of the present invention.

[2] = tested on: chick chorioallantoic membrane; test: bFGF and VEGF induced angiogenesis in chick chorioallantoic membrane model; conditions: in vivo
From the text: Significance: The function of αvβ5 has been indicated by many studies. […] Although αvβ5 participates in the initiation of cell adhesion to vitronectin, unlike αvβ3 which mediates cell migration constitutively, αvβ5 mediates migration only when activated by growth factors, such as insulin-like growth factor-1 (IGF-1), epidermal growth factor (EGF), and transforming growth factor-α (TGF-α).

T24 cells = test: Cellular binding to laminin and Matrigel; format: cell-based, human
MDA-MB-435 cells [3] = test: Adhesion of MDA-MB-435 cells to immobilized ECM proteins; format: cell-based, human
Protocol: The effect of CN on binding of highly metastatic human breast cancer cells, MDA-MB-435 cell line, to ECM proteins was examined. Human fibronectin and vitronectin were immobilized in the wells of 96-well microtiter plates. […] In a variation of the above experiments, CN was immobilized. […] Referring to FIGS. 12 and 13, varying concentrations of GRGDSP (FIG. 12) or EDTA (FIG. 13) were used to inhibit binding of human mammary carcinoma cells to immobilized CN. CN was at 0.1 μg/well. The vertical line at each data point indicates the y-axis error bar. All experiments were conducted as three sets of triplicates for each data point.

MDA-MB-435 cells [4] = test: Phosphotyrosine immunoblot, MDA-MB-435 cells; format: cell-based, human
Protocol: Cell culture, preparation and stimulation—T24 cells were maintained in RPMI 1640 medium containing 5% fetal bovine serum, and MDA-MB-435 and 293 cells were maintained in Dulbecco's modified Eagle's medium with 10% serum at 37° C. in 5% CO2. Cells were washed with phosphate-buffered saline (PBS) and starved in the appropriate serum-free medium for 6 h at 37° C. Cells were detached by brief treatment with 0.05% trypsin/0.02% EDTA in PBS and collected by centrifugation, resuspended in soybean trypsin inhibitor (1 mg/ml in serum-free medium), and washed in 2% bovine serum albumin/serum-free medium. Cells were maintained in suspension for 1 h in 2% bovine serum albumin/serum-free medium at 37° C. with end-over-end agitation. Quiescent cells (3×10^6/ml) were treated with disintegrins or other reagents while in suspension, or were allowed to adhere to Matrigel (Becton Dickinson, Bedford, Mass.) diluted 1:100 with serum-free medium during treatment.
Lysate preparation and immunoprecipitation—Suspended and adherent cells were washed twice with cold PBS and lysed in cold lysis buffer (50 mM Tris, pH 8.0, 150 mM NaCl, 1% Nonidet P-40, 0.5% deoxycholate, 0.1% SDS, protease inhibitor cocktail, 1 mM sodium pyrophosphate, 1 mM sodium orthovanadate, 50 mM sodium fluoride). After 10-15 min incubation on ice, insoluble material was removed by centrifugation at 14,000 RPM in a microcentrifuge for 15 min. Supernatants were collected and total protein concentrations standardized by the BCA protein assay (Pierce, Rockford, Ill.). Immunoprecipitation was carried out by incubating whole cell lysates (200 μg total protein) with 1.25 μg anti-FAK or anti-CAS mAb 4-6 h at 4° C. followed by 20 μl protein G-agarose overnight at 4° C. Immunoprecipitates were washed 4 times in lysis buffer without inhibitors and dissociated by adding SDS-PAGE sample buffer and boiling 5 min. Whole cell lysates (30 μg total protein) or immunoprecipitates were resolved by 7.5% SDS-polyacrylamide gel electrophoresis and transferred to nitrocellulose membranes.
Immunoblotting—Membranes were blocked with 5% nonfat milk/Tris-buffered saline/0.1% Tween 20 (blocking buffer) 1 h at room temperature or overnight at 4° C. Primary antibody incubations were performed in blocking buffer for 1 h at room temperature. After washing in Tris-buffered saline/0.1% Tween 20, membranes were incubated with horseradish peroxidase-conjugated secondary antibody in blocking buffer 1 h at room temperature. Membranes were washed extensively. Inimunoblots were developed using Super Signar West Pico Chemiluminescent Substrate from Pierce. Densitometry was performed using UN-SCAN-IT™, software (Silk Scientific, Orem, Utah))

platelets = test: Platelet release reactions (granule contents); format: cell-based
From the text: Platelets comprise a plurality of different granules, including alpha granules and dense granules, whose contents are released when the platelets aggregate. […] Thus, normal platelet physiological processes are necessarily further perturbed with administration of applaggin.

MDA-MB-435 cells [5] = test: Invasion of MDA-MB-435 cells through Matrigel-coated invasion chamber; format: cell-based, human; conditions: 48 hrs
Protocol: 2.5×10^3 MDA-MB-435 cells treated with various concentration of CN were allowed to migrate across the Matrigel layer for 48 hrs. Assays at each CN concentration were performed in triplicate. Cells invaded through the Matrigel filter were fixed and stained. Invaded cells were quantitated with microscope by the mean of cell numbers in three randomly selected vision field.

B1: contortrostatin (protein)
chain: DAPANPCCDAATCKLTTGSQCADGLCCDQCKFMKEGTVCRRARGDDLDDYCNGISAGCPRNPFHA
[1]
  M24 met cell adhesion to fibronectin and vitronectin: inhibit
[2]
  angiogenesis induced by bFGF and VEGF: inhibits angiogenesis
T24 cells
  cellular binding to Matrigel: does not inhibit cellular binding to Matrigel
  cellular binding to laminin: does not significantly inhibit cellular binding to laminin
MDA-MB-435 cells [3]
  effect on adhesion to human or rat type I collagen: minimal effect
MDA-MB-435 cells [3]; immobilized human fibronectin, read-out: IC50 for adhesion to fibronectin
  IC50: 18 nM
MDA-MB-435 cells [3]; immobilized human vitronectin, read-out: IC50 for adhesion to vitronectin
  IC50: 1.5 nM
MDA-MB-435 cells [4]; suspended cells, 10 min
  concentration giving maximal tyrosine phosphorylation: 10 nM
MDA-MB-435 cells [4]; tumor cells, soluble contortrostatin
  lowest concentration increasing tyrosine phosphorylation of FAK and CAS: 1 nM
platelets
  platelet release reactions: does not inhibit platelet release reactions
MDA-MB-435 cells [5]
  invasion of synthetic basement membrane by MDA-MB-435 cells: inhibitory effect
